B1: Pleckstrin homology domain-containing family M member 1 (Homo sapiens), Q9Y4G2 (parent)
chain: MLSVVENGLDPQAAIPVIKKKLVGSVKALQKQYVSLDTVVTSEDGDANTMCSALEAVFIHGLHAKHIRAEAGGKRKKSAHQKPLPQPVFWPLLKAVTHKHIISELEHLTFVNTDVGRCRAWLRLALNDGLMECYLKLLLQEQARLHEYYQPTALLRDAEEGEFLLSFLQGLTSLSFELSYKSAILNEWTLTPLALSGLCPLSELDPLSTSGAELQRKESLDSISHSSGSEDIEVHHSGHKIRRNQKLTASSLSLDTASSSQLSCSLNSDSCLLQENGSKSPDHCEEPMSCDSDLGTANAEDSDRSLQEVLLEFSKAQVNSVPTNGLSQETEIPTPQASLSLHGLNTSTYLHCEAPAEPLPAQAASGTQDGVHVQEPRPQAPSPLDLQQPVESTSGQQPSSTVSETAREVGQGNGLQKAQAHDGAGLKLVVSSPTSPKNKSWISEDDFYRPSREQPLESASDHPIASYRGTPGSRPGLHRHFSQEPRKNCSLGALDQACVPSPGRRQAQAAPSQGHKSFRVVHRRQMGLSNPFRGLMKLGTVERRGAMGIWKELFCELSPLEFRLYLSNEEHTCVENCSLLRCESVGPAHSDGRFELVFSGKKLALRASSQDEAEDWLDRVREALQKVRPQQEDEWVNVQYPDQPEEPPEAPQGCLSPSDLLSEPAALQGTQFDWSSAQVPEPDAIKESLLYLYMDRTWMPYIFSLSLEALKCFRIRNNEKMLSDSHGVETIRDILPDTSLGGPSFFKIITAKAVLKLQAGNAEEAALWRDLVRKVLASYLETAEEAVTLGGSLDENCQEVLKFATRENGFLLQYLVAIPMEKGLDSQGCFCAGCSRQIGFSFVRPKLCAFSGLYYCDICHQDDASVIPARIIHNWDLTKRPICRQALKFLTQIRAQPLINLQMVNASLYEHVERMHLIGRRREQLKLLGDYLGLCRSGALKELSKRLNHRNYLLESPHRFSVADLQQIADGVYEGFLKALIEFASQHVYHCDLCTQRGFICQICQHHDIIFPFEFDTTVRCAECKTVFHQSCQAVVKKGCPRCARRRKYQEQNIFA

Key:
[1] = variants of: B1; conditions: with rab7a_canlf RAB7A
[2] = variants of: B1; conditions: with gbrap_human GABARAP

| Variant | effect of a mutation on the interaction [1] | effect of a mutation on the interaction [2] |
| --- | --- | --- |
| S432D;S435D | with no effect | with no effect |
| S432A;S435A | with no effect | with no effect |
